These results are taken from article doi:10.1101/131276.

Holding throughout (experiment): non-reducing SDS-PAGE and Western blot
Experiment [1] deals with Gbb15 made by cleavage at the atypical S0 site (from gbb mS1 or gbb mNSmS1), HA-tagged (Drosophila).
The target in experiment [2] is Gbb38 from gbb mS1, HA-tagged (Drosophila).
Experiment [3] has as its target proGbb, the uncleaved Gbb proprotein from gbb mNSmS1, HA-tagged (Drosophila).
Experiment [4] addresses proGbb, the uncleaved Gbb proprotein from gbb mNSmS1mS0, HA-tagged (Drosophila).

Sequence of Gbb15 made by cleavage at the atypical S0 site (from gbb mS1 or gbb mNSmS1), HA-tagged (ligand) (P27091 37-455): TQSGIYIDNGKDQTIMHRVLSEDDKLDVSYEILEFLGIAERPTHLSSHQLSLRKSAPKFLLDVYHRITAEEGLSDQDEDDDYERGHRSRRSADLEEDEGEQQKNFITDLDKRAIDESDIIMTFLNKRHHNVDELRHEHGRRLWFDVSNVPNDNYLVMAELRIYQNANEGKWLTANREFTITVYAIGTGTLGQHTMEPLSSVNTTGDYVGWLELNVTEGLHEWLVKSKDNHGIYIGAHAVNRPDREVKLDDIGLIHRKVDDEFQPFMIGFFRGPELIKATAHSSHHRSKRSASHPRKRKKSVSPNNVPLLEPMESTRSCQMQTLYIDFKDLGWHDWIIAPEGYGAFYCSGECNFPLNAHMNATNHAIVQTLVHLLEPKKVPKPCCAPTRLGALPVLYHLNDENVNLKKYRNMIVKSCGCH

“Gbb15 made by cleavage at the atypical S0 site (from gbb mS1 or gbb mNSmS1), HA-tagged (ligand)” returned a stoichiometry N in experiment [1] of 2.

Substance Gbb38 from gbb mS1, HA-tagged (ligand) came in with a stoichiometry N in experiment [2] of 2.

As to “proGbb, the uncleaved Gbb proprotein from gbb mNSmS1, HA-tagged (natural protein)”, the stoichiometry N in experiment [3] was 2.

For the substance “proGbb, the uncleaved Gbb proprotein from gbb mNSmS1mS0, HA-tagged (natural protein)”, the stoichiometry N in experiment [4] worked out at 2.

What is called stoichiometry N is a count of units in the complex or per binding partner.
